In patent publication US20230324404A1 (Takeda / Millennium, published 2023):

Legend:
[1] = molecular target: T1, DENV4 VLP (strain Dominica/814669/1981) (Dengue virus serotype 4 strain …, UniProt P09866 114-732); assay: microsphere immunoassay, DENV4 VLP-coupled microspheres, 120 min incubation
T1 construct: also called dengue-4 virus like particle

[2] = molecular target: T2, ZIKV VLP (zika virus like particle, isolate Z1106033) (Zika virus isolate Z1106033 (Suriname, …, UniProt A0A024B7W1 123-794))
T2 construct: also called zika VLP; ZIKV VLPs

[3] = molecular target: T3, DENV2 VLP (strain Thailand/16681/84) (Dengue virus serotype 2 strain …); assay: microsphere immunoassay, DENV2 VLP-coupled microspheres, 120 min incubation
T3 construct: also called dengue-2 virus like particle

[4] = molecular target: T4, DENV3 VLP (strain Sri Lanka D3/H/IMTSSA-SRI/2000/1266) (Dengue virus serotype 3 strain Sri …); assay: microsphere immunoassay, DENV3 VLP-coupled microspheres, 120 min incubation
T4 construct: also called dengue-3 virus like particle

[5] = molecular target: T5, DENV1 VLP (strain Puerto Rico/US/BID-V853/1998) (Dengue virus serotype 1 strain Puerto …); assay: microsphere immunoassay, DENV1 VLP-coupled microspheres, 120 min incubation
T5 construct: also called dengue-1 virus like particle

[6] = molecular target: T1, DENV4 VLP (strain Dominica/814669/1981); assay: microsphere immunoassay, DENV4 VLP-coupled microspheres
[7] = molecular target: T3, DENV2 VLP (strain Thailand/16681/84); assay: microsphere immunoassay, DENV2 VLP-coupled microspheres
[8] = molecular target: rZIKV-EDIII-1 (recombinant 6xHis-SUMO-tagged ZIKV EDIII) (Zika virus strain H/PF/2013, UniProt A0A024B7W1 589-697); assay: Bio-layer interferometry (Octet)
[9] = molecular target: T5, DENV1 VLP (strain Puerto …); assay: microsphere immunoassay, DENV1 VLP-coupled microspheres
[10] = molecular target: T4, DENV3 VLP (strain Sri Lanka …); assay: microsphere immunoassay, DENV3 VLP-coupled microspheres

B1: Anti-ZIKV #11 (Clone 11-3) (antibody, V domains shown)
VH: QEQLVESGGGLVQPEGSLTITCTGSGFSFSSRFYMCWVRQAPGKGLEWIACIYGGSSGSTYYASWAKGRFTISKTSSTTVTLQISSLTAADTATYFCARGGSTAAAGFNLWGPGTLLTVSS
VL: DVVMTQTPASVSATVGGTVTIKCQASEDIYNLLAWYQQKPGQPPKLLIYYASTLASGVPSRFKGSGSGTEFTLTISDLECADAATYYCQCNDYGGTYVPNAFGGGTEVVVKG
[1]
  binding result: no binding (tested: 0.001 to 20 µg/mL)
[2]
  EC25: 3.2 ng/mL
  EC50: 10.5 ng/mL
[3]
  binding result: no binding (tested: 0.001 to 20 µg/mL)
[4]
  binding result: no binding (tested: 0.001 to 20 µg/mL)
[5]
  binding result: no binding (tested: 0.001 to 20 µg/mL)

B2: Anti-ZIKV #4 (Clone 289-3) (antibody, V domains shown)
VH: QEELEESGGDLVKPGASLTLTCKASGFSFSSGAYICWVRQAPGKGPEWIACIYTGDGRTYYANWAKRRFTISSSSSTTVALEMPSLTDADTATYFCARAIAVGAGYGVGNYFTLWGPGTLVTVSS
VL: DIVMTQTPSSVSAAVGGTVTINCHASENIYGYLSWYQQKPGQPPKLLIYKASTLASGVPSRFKGSGAGTQFTLTITALECADAATYYCQSYYTSSSNADGSENAFGGGTEVVVEG
[6]
  binding result: no binding (tested: 0.001 to 20 µg/mL)
[7]
  binding result: no binding (tested: 0.001 to 20 µg/mL)
[8]
  binding result: binds
[9]
  binding result: no binding (tested: 0.001 to 20 µg/mL)
[10]
  binding result: no binding (tested: 0.001 to 20 µg/mL)
